Ends that are not written are not given here. FAM = carboxyfluorescein
Target: T1, Hsp70 wild type (human Hsp70 1A) (human, UniProt P0DMV8 1-641)
T1 construct: human Hsp70 1A, GenBank entry NP005336; also called Hsp70 WT; heat shock protein 70 kDa
Assay: other fluorescence titration; 0.15 µM FAM-hIAPP with 0 to 36 µM chaperone in 50 mM Tris pH 7.4, 150 mM KCl, 5 mM MgCl2, 1 h at room temperature; FAM fluorescence at 520 nm; one-site binding model
Conditions: both partners purified

T1 sequence (P0DMV8 whole entry): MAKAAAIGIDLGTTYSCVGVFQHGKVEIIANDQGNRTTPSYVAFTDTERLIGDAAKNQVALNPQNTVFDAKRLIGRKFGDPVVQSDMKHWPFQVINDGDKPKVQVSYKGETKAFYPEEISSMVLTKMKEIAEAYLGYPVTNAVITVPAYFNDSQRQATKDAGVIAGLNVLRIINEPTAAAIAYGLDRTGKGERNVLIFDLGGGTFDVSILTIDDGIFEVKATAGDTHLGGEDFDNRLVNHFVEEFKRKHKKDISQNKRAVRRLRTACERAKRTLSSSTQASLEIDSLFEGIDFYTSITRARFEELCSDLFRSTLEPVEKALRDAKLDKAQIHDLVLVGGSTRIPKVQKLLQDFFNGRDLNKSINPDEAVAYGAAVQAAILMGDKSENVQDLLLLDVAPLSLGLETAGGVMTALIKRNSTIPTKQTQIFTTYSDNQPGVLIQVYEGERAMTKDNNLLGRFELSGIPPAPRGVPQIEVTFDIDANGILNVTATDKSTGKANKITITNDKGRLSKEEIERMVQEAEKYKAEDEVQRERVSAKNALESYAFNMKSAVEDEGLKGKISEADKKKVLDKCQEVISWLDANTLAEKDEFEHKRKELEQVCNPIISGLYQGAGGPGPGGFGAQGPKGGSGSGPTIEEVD

- Kd: 2200 ± 300 nM
B1: FAM-hIAPP (human islet amyloid polypeptide N-terminally labelled with carboxyfluorescein) (peptide, UniProt P10997 34-70, looked up)
peptide: {FAM}-KCNTATCATQRLANFLVHSSNNFGAILSSTNVGSNTY
modifications: ends and bridges not checked
notes: human islet amyloid polypeptide (hIAPP, amylin), the mature hormone cut from its precursor; also called amylin; source: bought: Phoenix Pharmaceuticals
